# According to the nanobody polyreactivity screen of Harvey et al. (2022):
# Assay: yeast display, Sf9 membrane polyspecificity reagent, FACS + sequencing; frameworks hold sequencing errors
# Outline: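 Nanobodies from a synthetic yeast display library (Saccharomyces cerevisiae BJ5465), induced 36–48 hours with galactose, were stained 1 hour at 4 °C with 10% biotinylated, detergent-solubilized Sf9 membrane reagent, enriched on streptavidin microbeads, then FACS-sorted. Anti-HA (expression) and streptavidin (reagent binding) fluorescence set low and high (top ~1%) gates. Polyreactivity labels come from the gate of origin. Genes were colony-PCR amplified, MiSeq 2 × 250 sequenced and filtered by CDR length.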
row,Sequence,polyreactivity (PSR sort gate)
1,QVQLVESGGGLVKAGGSLRLSCAASGSTFDSYAMGWYRQPPGKERELVASITSNDGSTSYADSVKGRFTISRDNAKNTVYLQMNSLKPEDTAVYYCAASSLYSDYGHRNLADGPYDYWGQGTQVTVSS,low polyreactivity
2,QVQLVESGGGLVKAGGSLRLSCAASGSTFYSYVMGWYRQAPGKERELFAAISRRGGSTYYADSVKWRFTISSDNAKNTVYLQMNSLKPEDTAVYYCAASAPVAGYKYRYDYWGQGTQVTVSS,high polyreactivity
3,QVQLVESGGGLVKAGGSLRLSCAATGFTLSWYDMGWYRPAPGKERELVATISRGGITYYADSVKGRFTISRDNAKNTVYLQMNSLKPEDTAVYYCAADYRYGWYRYDYWGQGTQVTVSS,high polyreactivity
4,QVQLVESGGGLVKAGGSLRLSCAATGRIFTYMGWYRQARGKERELVAGISWRGTSTYYADSVKGRFTISRDNAKNSVYLQMNSLKPEDTAVYYCAARWAYHVRGDYWGQGTQVTVSS,low polyreactivity
5,QVQLVESGGGLVKAGGSLRLSCAAYGIIYYPYAMGRYRHAPGKEWELVAAIDRSGSSTYYADSVKGRFTISRDNAKNTVYVQMNSLKPEDTAVYYCAAAHTYFTAYGDYWGQGTQVTVSS,low polyreactivity
6,QVQLVESGGGLVKAGGSLRLSCAAYGITFIRYAMGWYRQAPGKERELVAVMTRSGGRTYYADSVKGRFTISRDNAKNTVYLQMNSLKPEDTAVYYCAARAYGYDEYEYWGQGTQVTVSS,high polyreactivity
7,QVQLVESGGGLVKAGGSLRLSRAASGSIFPRYAMGWNRQAPGKERELVAAITSSAASTYYADSVKGRFTISRDNAKNTVYLQMNSLKPEDSAVYYCAASGPWSYWYYYWGQGTQVTVSS,low polyreactivity
8,QVQLVESGGGLVKAGGSLRLSSAATGFIFAYYDMGWYRQAPGKERELVAAISSRGGTYYADSVKGRFTISRDNATITVYLKMNCLKPEDTAVYDCAAASYTWVSRGYEYWGQGTQVTVSS,high polyreactivity
9,QVQLVESGGGLVKEGGSLRLRCAASGRTFYVNAMGWSRQAPGKERELFASISSSGGSTYYADSVKGRFTSSRDNAKNTVYLQMNRLKPEDTEVYYCAKGYWPFWRGDRFYWGQGTQVTVSS,high polyreactivity
10,QVQLVESGGGLVKEGGSLRLSCAASGITFSWNAMGWYRQAPGKERELVAAISSSGGSTYYADSVKGRFTISRDYAKNTVYLLMNSLKPEDTAVYFCNADRFWFHWVYSRYHYDYWGQGTQVTVSS,high polyreactivity
11,QVQLVESGGGLVKEGGSLRLSCAASGSIFDWYVMGWYRQAPRKERELVATITRDGSTNYADSVKGRFTISRDNAKNTVYLQMNSLKPEDTAVYYCAAVIRSNRLYDGGYWGQGTQVTVSS,low polyreactivity
12,QVQLVESGGGLVLAGGILRLSCAASGSTFKRYAMGWYRQAPGKVRELVAAITWRGGSTYYADSVKGRFTISRDNAKNTVYLQMNSLKPEDTAVYYCAARANYFGWPKSYYYWGQGTQVTVSS,high polyreactivity
13,QVQLVESGGGLVLAGGSLRLRCAASGRIFGQYTMGWYRQAPGKERELVAAISRSSSSKYADSVKRRFTISRDNAKNTGYLQMNSLKPEDTAVYYCAAYVYYYGGRTYDYWGQGTQLTVSS,high polyreactivity
14,QVQLVESGGGLVLAGGSLRLSCAASGLILPYYTMGWYREAPGKERELVAAIRRTTGSTFYADSVKGRFTISRDNAKNTVYLQMNSLKPEDTAVYYCNVRRTPYRHWTGGGMDYWGQGTQVTVSS,high polyreactivity
15,QVQLVESGGGLVLAGGSLRLSCAASGRTFRYYTMGWFRPAPGKEREFVAAISSTGGTYYADSVKGRFTISRDNAKNTVYLQMNSLNPEDTAVYYCAATFIQVVVNVQLYDYDYWGQGTQVTVSS,low polyreactivity
16,QVQLVESGGGLVLAGGSLRLSCAASGRTFVPYAMGWYRQAPGKERELVAAMSQSGGRTYYTDSVKGRFTISGETAKNTVYLQMNSLNPEDTAVYYCAADVRSSIGHFTLYDYWGQGTQVTVSS,high polyreactivity
17,QVQLVESGGGLVLAGGSLRLSCAASGRTFVQYAMGWYRQAPGTERELVAAISDRGGNTYYADSVKGRFTISRDNAKNTVYLQMNSLKPDDTAVYYCAAKIALDNDYWGQGTQVTVSS,high polyreactivity
18,QVQLVESGGGLVLAGGSLRLSCAASGSIFYVYAMGWYRQAPGKERELVASITWSGGRTYYADSVKGRFTISRDNAKNTVYLQMNSLKPEDTAVYYCNAVSFGARTTSYRYGSCGQGTQVTVSS,high polyreactivity
19,QVQLVESGGGLVLAGGSLRLSCAASGSTFTRNAMGWYRQAPGKERELVATISSGGSTNYADSVKGRFTISRDNAKNTVYLQMNSLKPEDTAVYYCAKRSLYRYYYWGQGPQVTVSS,high polyreactivity
20,QVQLVESGGGLVLAGGSLSLSCAASGSTFIWNAMGWYRQAPGKERELVAAIRRGSSTNYADSVKGRFTISRDNAKNTVYLQMNSLKPEDTAVYYCAKKQVTTDVSSETFVLEMDYWGQGTQVTVSS,low polyreactivity
21,QVQLVESGGGLVPAGGSLRFSCAASGMTFFVNDRGSYRQAPGKERELLAVISFTGDSTFYADSVKGRFTISRDKAQNTVSLQMHSLKPEETAVYYSAADFRRGFSKYSYYLYFDFDYWGQGTQVTVSS,low polyreactivity
22,QVQLVESGGGLVPAGGSLRLSCAASGFIILYYAMGWYRHEPGKERELVAAITTRGGRTYYADSVKGRFTISRDNAKNTVYLQMYSLKPEDTALYYCAADHLYWGLEDESWGQGTQVTVSS,low polyreactivity
23,QVQLVESGGGLVPAGGSLRLSCAASGIIFGTYAMGWYRQEPGKERELVAAIRRTGTGTYYADSVKGRFTISRDNAKNTVYLQMNSLKPEDTAVYYCNVVRSYAYDYWGQGTQVTVSS,high polyreactivity
24,QVQLVESGGGLVPAGGSLRLSCAASGRTFYYYAMGWYRQAPGKERELVAAIRRSGSSTYYADSVKGRFTISRDNAKNTVYLQMNSLKPEDTAVYYCAARPRRPRSNYWGQGTQVSVSS,high polyreactivity
25,QVQLVESGGGLVPAGGSLRLSCAASGSIFGKNAMGSYRQAPGNERELVAAITRRGGSTYYADSVKGRFTISRDNAKNTVYLQMNSLKAEDTAVYYCAAVSHYPAGYDYWGQGTQVTVSS,high polyreactivity
26,QVQLVESGGGLVPARGSLRLSCAASGNIFFVYDMGWYRQAPGKERELVAAISWSGGSTYADSVKGRFTISRDNGKNNVYLQMNSLKPEDTGVYYCAADVAYVEYDYWGQGSQVTVSS,low polyreactivity
27,QVQLVESGGGLVQAAGSLRLSCAASGLIFQNYPMGWYRQAPGKERELVARISRRGGSTYYADSVKGRFTISRDNAKNPVYLQMISLKQEDTAVYYCAAGWTRWTSKRFEYWGQGTQVTVSS,high polyreactivity
28,QVQLVESGGGLVQAAGSLRLSCAASGRTFKVYAMGWYRQAPGKERELVAAITWRGGRTYYADSVKGRFTISSDNAKNTVYLQMNSLKPEDTAVYDCAADLYYLTHDYWGQGTQVTVSS,high polyreactivity
29,QVQLVESGGGLVQAAGSLRLSCAASGSIFETYAMGWYRHAPGKERELVAAITQSGGSTYYADSVKGRFTISRDNAKNTVYLQMNSLKPEDTEVYYCAADLFVWWNWGYEYWGQGTQVTVSS,low polyreactivity
30,QVQLVESGGGLVQAAGSLRLSCAASGSIFFYNAMGWYRQAPGIERELVAAITGGGGRTYYADSVKGRFTISRDNAKNTVYLQMNSLKPEDTAVYYCNKDWAQPYDYWGQGTQVTVSS,high polyreactivity
